Data taken from patent US20250381223A1 (UTC THERAPEUTICS SHANGHAI, published 2025).

What was measured:
CD40-Fc [1] = molecular target: T1, CD40-Fc ( for this staining reagent …, UniProt P25942); experiment: flow cytometry, lentivirus-transduced T cells, CD40-Fc + PE-anti-Fc
T1 construct: soluble Fc fusion; Staining reagent, detected with PE-anti-Fc
Description: (§1) The transduction efficiency of the CAR-T cells was detected as follows: […] CAR-T cells were plated into each well of a 96-well plate, and the plate was washed once with PBS. 50 μL of Meso-Fc or CD40-Fc protein at a final concentration of 2 μg/mL was added to each well, and the mixture was incubated for 30 min at 4° C. The cells were washed 3 times with PBS, and 50 μL of PE-anti-Fc antibody at a final concentration of 1 μg/mL was added to each well. The mixture was incubated at 4° C. for 30 min. After being washed twice with PBS, the cells were detected by a flow cytometer.

[2] = molecular target: T2, mesothelin-Fc recombinant protein (human, UniProt Q13421 296-580, limits assumed); experiment: flow cytometry, T cells with CAR mRNA, mesothelin-Fc + PE-anti-IgG-Fc; Control 0.63
T2 construct: construct not described; also called Meso-Fc; not shown: Fc part
Description: Mesothelin CAR mRNA obtained in Example 26 above was introduced into A549 tumor cells and T cells by electroporation, and the procedures are as follows: A549 tumor cells and T cells were collected and washed 3 times with the Opti-MEM medium. The cell pellet was resuspended in the Opti-MEM medium and the cell concentration was adjusted to 1×10e7 cells/mL. 10 μg of RNA was aliquoted into 1.5-mL EP tubes, 100 μL of T cells or A549 cells were added, followed by mixing well. 100 μL of cells mixed with RNA were added to the BTX electroporation cuvette and slight tapping was performed to avoid air bubbles. Electroporation was performed using a BTX instrument under the following parameters: for T cells: 500 V voltage, 0.7 ms; for A549 tumor cells: 300 V voltage, 0.5 ms. The cells were then transferred to a pre-warmed medium and cultured at 37° C. The binding of mesothelin CART cells to the mesothelin-Fc recombinant protein was determined by FACS staining. […] T cells without CAR molecules served as the control (“Mock”).

CD40-Fc [3] = molecular target: T3, CD40-Fc (human, UniProt P25942); experiment: flow cytometry of T cells electroporated with 2 µg M12 CAR mRNA alone; CD40-Fc + PE-anti-Fc
T3 construct: part fused to Fc; staining reagent of the flow cytometry; also called recombinant human CD40-Fc antigen protein

CD40-Fc [4] = molecular target: T1, CD40-Fc; experiment: flow cytometry, lentivirus-transduced T cells, CD40-Fc 2 µg/mL + PE-anti-Fc; UTD 0.66, M12 1.16
Description: as §1

T2 sequence (Q13421 other isoform, or with tags, fused parts or gaps limits assumed): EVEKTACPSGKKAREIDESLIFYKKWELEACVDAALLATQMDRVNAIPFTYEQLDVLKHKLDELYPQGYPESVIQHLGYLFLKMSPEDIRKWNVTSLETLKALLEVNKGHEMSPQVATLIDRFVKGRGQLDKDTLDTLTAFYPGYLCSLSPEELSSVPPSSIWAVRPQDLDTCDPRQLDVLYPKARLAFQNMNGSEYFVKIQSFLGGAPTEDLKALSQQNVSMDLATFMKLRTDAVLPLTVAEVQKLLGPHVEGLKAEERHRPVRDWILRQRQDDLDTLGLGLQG

binding result (CD40-Fc [1]) | percent of cells in the gate [2] [%] | binding result (CD40-Fc [3]) | percent of cells in the gate (CD40-Fc [4]) [%] | Binder
no binding (tested: 2 µg/mL) | 86.5 | no binding | – | anti-mesothelin scFv-M12 (scFv, On mRNA-electroporated T cells as CAR; also called Meso-CAR (M12)) scFv: AIRLTQSPSLLSASVGDRVTVTCRASQGGGNYLAWYQQKPGKAPKLLIYGASKLQSGVPSRFSGSGSGTEFTLTISSLQPEDFATYYCQQLNSYPVTFGQGTKVDIKGGGGSGGGGSGGGGSEVQLVESGAEVKKPGASVKVSCKASGYTFTTYYIHWVRQAPGQGLEWMGIINPSSGSTTYTQKFQGRVTMTRDTSTSTVYIELSGLRSEDTAVYYCARGETLRGYFDYWGQGTLVTVSS
– | – | – | 39.8 | A40C2828 (other, also called new A40C28; New A40C28) membrane fusion protein with an anti-CD40 antibody part: QVQLVQSGAEVKKPGASVKVSCTASGFNIKDYYVHWVKQAPGQGLEWMGRIDPEDGDSKYAPKFQGKATMTADTSTSTVYMELSSLRSEDTAVYYCTTSYYVGTYGYWGQGTLVTVSSGGGGSGGGGSGGGGSDIQMTQSPSSLSASVGDRVTITCSASSSVSYMLWFQQKPGKAPKLLIYSTSNLASGVPSRFSGSGSGTDFTLTISSLQPEDFATYYCQQRTFYPYTFGGGTKVEIKRTASIEVMYPPPYLDNEKSNGTIIHVKGKHLCPSPLFPGPSKPFWVLVVVGGVLACYSLLVTVAFIIFWVRSKRSRLLHSDYMNMTPRRPGPTRKHYQPYAPPRDFAAYRS
